T1: Boi1 SH3 (BOI1_YEAST), P38041
T1 chain: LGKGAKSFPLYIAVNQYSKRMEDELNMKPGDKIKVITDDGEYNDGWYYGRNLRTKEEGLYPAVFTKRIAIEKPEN

T2: Boi2 SH3 (BOI2_YEAST), P39969
T2 chain: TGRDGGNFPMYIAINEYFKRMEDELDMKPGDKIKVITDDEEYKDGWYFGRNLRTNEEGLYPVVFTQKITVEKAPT

T3: Myo5 SH3 (MYO5_YEAST), Q04439
T3 chain: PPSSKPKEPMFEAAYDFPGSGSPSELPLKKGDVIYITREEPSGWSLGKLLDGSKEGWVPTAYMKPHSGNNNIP

T4: Rvs167 SH3 (RV167_YEAST), P39743
T4 chain: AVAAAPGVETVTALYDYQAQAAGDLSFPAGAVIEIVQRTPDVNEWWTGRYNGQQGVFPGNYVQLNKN

T5: Yfr024 SH3 (LSB3_YEAST), P43603
T5 chain: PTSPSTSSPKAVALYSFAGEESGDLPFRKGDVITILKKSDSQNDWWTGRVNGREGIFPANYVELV

T6: Yhr016c SH3 (YSC84_YEAST), P32793
T6 chain: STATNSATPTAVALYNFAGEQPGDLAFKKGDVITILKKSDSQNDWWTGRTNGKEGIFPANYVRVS


What was measured:
Assay in all cases: SPOT array
[1] = molecular target: T1, Boi1 SH3 (BOI1_YEAST), P38041
[2] = molecular target: T2, Boi2 SH3 (BOI2_YEAST), P39969
[3] = molecular target: T3, Myo5 SH3 (MYO5_YEAST), Q04439
[4] = molecular target: T4, Rvs167 SH3 (RV167_YEAST), P39743
[5] = molecular target: Sho1 SH3 (SHO1_YEAST), P40073
Chain of Sho1 SH3 (SHO1_YEAST), P40073 (P40073 295-366): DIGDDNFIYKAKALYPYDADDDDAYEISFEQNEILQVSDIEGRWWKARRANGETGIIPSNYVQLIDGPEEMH

[6] = molecular target: T5, Yfr024 SH3 (LSB3_YEAST), P43603
[7] = molecular target: T6, Yhr016c SH3 (YSC84_YEAST), P32793

| Binder | normalised SPOT signal, Boehringer light units (BLU); mean over the file's lines of this peptide [1] | normalised SPOT signal, Boehringer light units (BLU); mean over the file's lines of this peptide [2] | normalised SPOT signal, Boehringer light units (BLU); mean over the file's lines of this peptide [3] | normalised SPOT signal, Boehringer light units (BLU); mean over the file's lines of this peptide [4] | normalised SPOT signal, Boehringer light units (BLU); mean over the file's lines of this peptide [5] | normalised SPOT signal, Boehringer light units (BLU); mean over the file's lines of this peptide [6] | normalised SPOT signal, Boehringer light units (BLU); mean over the file's lines of this peptide [7] |
| --- | --- | --- | --- | --- | --- | --- | --- |
| MTVPRNRPMAPFGT [YLR064W 1-14] | 1210 | 55.2 | 596 | 187 | 186 | 466 | 213 |
| MDMDRNVPLAPNLN [YJR066W 21-34] | 41.3 | 31.4 | 91.4 | 30.8 | 30.7 | 475 | 77.5 |
| MRRSKDAPIEPPKY [YOR346W 669-682] | 555 | 688 | 155 | 1200 | 149 | 2300 | 1050 |
| MDGIKELPEFPIKK [YMR266W 737-750] | 25.9 | 0.9 | 138 | 32.2 | 3820 | 402 | 40.3 |
| MKPQKIAPKFPGTV [YDR091C 417-430] | 1110 | 31.6 | 416 | 137 | 142 | 394 | 40.5 |
| MGLNKDVPHSPESL [YPL111W 171-184] | 146 | 50.6 | 99.4 | 251 | 19.1 | 733 | 242 |
| MPNLKRLPIPPLQD [YAR035W 1-14] | 80.9 | 23 | 307 | 65.7 | 24500 | 489 | 83.4 |
| MSWSKERPESPLSR [YDR265W 311-324] | 1020 | 104 | 268 | 243 | 155 | 1750 | 168 |
| MLFMKGSPSEPKSG [YDR098C 199-212] | 30.9 | 128 | 251 | 377 | 59.6 | 1090 | 262 |
| MAEFRRVPLPPMAE [YML058W 28-41] | 59.6 | 64.1 | 443 | 30400 | 57.5 | 30500 | 7260 |
| MKAYRANPPLPIDS [YDR104C 798-811] | 132 | 133 | 123 | 145 | 231 | 938 | 615 |
| MLNSKHYPYIPVAN [YBR096W 107-120] | 57.3 | 50 | 171 | 368 | 35 | 595 | 128 |
| MQSKKEDPNRPKNL [YMR241W 242-255] | 898 | 50.2 | 154 | 153 | 44.8 | 716 | 126 |
| MDKFRIPPKSPNIE [YDR017C 929-942] | 3140 | 74.3 | 222 | 196 | 34.3 | 2100 | 473 |
| MAFIKILPNNPWPF [YGL065C 457-470] | 44.1 | 0 | 59.9 | 46.5 | 166 | 75.2 | 4.3 |
| MTQPKKNPMEPKTD [YDL148C 252-265] | 37.8 | 76.8 | 147 | 181 | 15.9 | 404 | 60.7 |

Reference: publication PMC314469, “Protein Interaction Networks by Proteome Peptide Scanning” (PLoS Biology, 2004)
